The results in this text go back to the supplement of paper PMC5998384.

Data set [1] has as its system HeLa Kyoto. The data set can be described thus: solubility in G1/S (NP-40 vs SDS abundance) (log2 ratio); higher = more soluble. To be noted: cell cycle stage: G1/S.
Data set [2] concerns HeLa Kyoto. In words: melting temperature (median over replicates), in situ; higher = more thermally stable.
Data set [3] relates to HeLa Kyoto. The data set can be described thus: solubility change mitosis vs G1/S (difference of NP-40 vs SDS log2 ratios) (log2 ratio difference); higher = more soluble in mitosis.
Data set [4] relates to HeLa Kyoto. The data set can be described thus: thermal stability score vs G1/S (z-score of summed log2 fold changes over temperatures); higher = more thermally stable than in G1/S.
[5] abbreviates: cell cycle stage: early G1 (4.5 h after nocodazole release).
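Throughout, for melting temperature (median over replicates), in situ: HeLa Kyoto cells synchronized by double thymidine or nocodazole block, proteins quantified by TMT10plex mass spectrometry, three independent biological replicates.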
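Throughout, for solubility change mitosis vs G1/S (difference of NP-40 vs SDS log2 ratios): synchronized HeLa Kyoto cells (double thymidine block for G1/S, nocodazole release for mitosis), protein amounts in NP-40 versus SDS lysates quantified by mass spectrometry, three biological replicates.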
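Throughout, for solubility in G1/S (NP-40 vs SDS abundance): HeLa Kyoto cells arrested at G1/S by double thymidine block, proteins quantified by TMT10plex mass spectrometry in mild NP-40 versus SDS extracts, three biological replicates.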
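Throughout, for thermal stability score vs G1/S (z-score of summed log2 fold changes over temperatures): synchronized HeLa Kyoto cells, proteins quantified by TMT10plex mass spectrometry, three biological replicates, mitosis taken 0.5 h after nocodazole release, G1/S directly after double thymidine block.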

“MKSLKSRLRRQDVPGPASSGAAAASAHAADWNKYDDRLMKAAERGDVEKVTSILAKKGVNPGKLDVEGRSVFHVVTSKGNLECLNAILIHGVDITTSDTAGRNALHLAAKYGHALCLQKLLQYNCPTEHADLQGRTALHDAAMADCPSSIQLLCDHGASVNAKDVDGRTPLVLATQMSRPTICQLLIDRGADVNSRDKQNRTALMLGCEYGCRDAVEVLIKNGADISLLDALGHDSSYYARIGDNLDILTLLKTASENTNKGRELWKKGPSLQQRNLTHMQDEVNVKSHQREHQNIQDLEIENEDLKERLRKIQQEQRILLDKVNGLQLQLNEEVMVADDLESEREKLKSLLAAKEKQHEESLRTIEALKNRFKYFESDHLGSGSHFSNRKEDMLLKQGQMYMADSQCTSPGIPAHMQSRSMLRPLELSLPSQTSYSENEILKKELEAMRTFCESAKQDRLKLQNELAHKVAECKALALECERVKEDSDEQIKQLEDALKDVQKRMYESEGKVKQMQTHFLALKEHLTSEAASGNHRLTEELKDQLKDLKVKYEGASAEVGKLRNQIKQNEMIVEEFKRDEGKLIEENKRLQKELSMCEMEREKKGRKVTEMEGQAKELSAKLALSIPAEKFENMKSSLSNEVNEKAKKLVEMEREHEKSLSEIRQLKRELENVKAKLAQHVKPEEHEQVKSRLEQKSGELGKKITELTLKNQTLQKEIEKVYLDNKLLKEQAHNLTIEMKNHYVPLKVSEDMKKSHDAIIDDLNRKLLDVTQKYTEKKLEMEKLLLENDSLSKDVSRLETVFVPPEKHEKEIIALKSNIVELKKQLSELKKKCGEDQEKIHALTSENTNLKKMMSNQYVPVKTHEEVKMTLNDTLAKTNRELLDVKKKFEDINQEFVKIKDKNEILKRNLENTQNQIKAEYISLAEHEAKMSSLSQSMRKVQDSNAEILANYRKGQEEIVTLHAEIKAQKKELDTIQECIKVKYAPIVSFEECERKFKATEKELKDQLSEQTQKYSVSEEEVKKNKQENDKLKKEIFTLQKDLRDKTVLIEKSHEMERALSRKTDELNKQLKDLSQKYTEVKNVKEKLVEENAKQTSEILAVQNLLQKQHVPLEQVEALKKSLNGTIENLKEELKSMQRCYEKEQQTVTKLHQLLENQKNSSVPLAEHLQIKEAFEKEVGIIKASLREKEEESQNKMEEVSKLQSEVQNTKQALKKLETREVVDLSKYKATKSDLETQISSLNEKLANLNRKYEEVCEEVLHAKKKEISAKDEKELLHFSIEQEIKDQKERCDKSLTTITELQRRIQESAKQIEAKDNKITELLNDVERLKQALNGLSQLTYTSGNPTKRQSQLIDTLQHQVKSLEQQLADADRQHQEVIAIYRTHLLSAAQGHMDEDVQEALLQIIQMRQGLVC [UACA]”: the “solubility in G1/S (log2)” value with HeLa Kyoto [1] came to 0.233. For the same sequence, the figures for the melting temperature in the data set with HeLa Kyoto [2] (cell cycle stage: G1/S) and in the data set with HeLa Kyoto [2] (cell cycle stage: mitosis) were 48.5 °C and 50.6 °C, respectively. In addition, the “solubility change mitosis (log2)” value in the data set with HeLa Kyoto [3] is -0.0155. For the same sequence, the results for the thermal stability score with HeLa Kyoto [4] (setting [5]) and with HeLa Kyoto [4] (cell cycle stage: mitosis) were 1.19 and 0.0635, respectively.

“MKSNPAIQAAIDLTAGAAGGTACVLTGQPFDTMKVKMQTFPDLYRGLTDCCLKTYSQVGFRGFYKGTSPALIANIAENSVLFMCYGFCQQVVRKVAGLDKQAKLSDLQNAAAGSFASAFAALVLCPTELVKCRLQTMYEMETSGKIAKSQNTVWSVIKSILRKDGPLGFYHGLSSTLLREVPGYFFFFGGYELSRSFFASGRSKDELGPVPLMLSGGVGGICLWLAVYPVDCIKSRIQVLSMSGKQAGFIRTFINVVKNEGITALYSGLKPTMIRAFPANGALFLAYEYSRKLMMNQLEAY [SLC25A15]”: the “solubility in G1/S (log2)” value in the data set on HeLa Kyoto [1] stood at 0.00397. In addition, the melting temperature turned out to be 58 °C in the data set on HeLa Kyoto [2] (cell cycle stage: G1/S) and 56.6 °C in the data set with HeLa Kyoto [2] (cell cycle stage: mitosis). Further, the “solubility change mitosis (log2)” value in the data set on HeLa Kyoto [3] is -0.0497. The thermal stability score with HeLa Kyoto [4] (setting [5]) is -2.21; in the data set with HeLa Kyoto [4] (cell cycle stage: mitosis), -1.66.

As for “MKSRFSTIDLRAVLAELNASLLGMRVNNVYDVDNKTYLIRLQKPDFKATLLLESGIRIHTTEFEWPKNMMPSSFAMKCRKHLKSRRLVSAKQLGVDRIVDFQFGSDEAAYHLIIELYDRGNIVLTDYEYVILNILRFRTDEADDVKFAVRERYPLDHARAAEPLLTLERLTEIVASAPKGELLKRVLNPLLPYGPALIEHCLLENGFSGNVKVDEKLETKDIEKVLVSLQKAEDYMKTTSNFSGKGYIIQKREIKPSLEADKPVEDILTYEEFHPFLFSQHSQCPYIEFESFDKAVDEFYSKIEGQKIDLKALQQEKQALKKLDNVRKDHENRLEALQQAQEIDKLKGELIEMNLQIVDRAIQVVRSALANQIDWTEIGLIVKEAQAQGDPVASAIKELKLQTNHVTMLLRNPYLLSEEEDDDVDGDVNVEKNETEPPKGKKKKQKNKQLQKPQKNKPLLVDVDLSLSAYANAKKYYDHKRYAAKKTQKTVEAAEKAFKSAEKKTKQTLKEVQTVTSIQKARKVYWFEKFLWFISSENYLIIGGRDQQQNEIIVKRYLTPGDIYVHADLHGATSCVIKNPTGEPIPPRTLTEAGTMALCYSAAWDARVITSAWWVYHHQVSKTAPTGEYLTTGSFMIRGKKNFLPPSYLMMGFSFLFKVDESCVWRHQGERKVRVQDEDMETLASCTSELISEEMEQLDGGDTSSDEDKEEHETPVEVELMTQVDQEDITLQSGRDELNEELIQEESSEDEGEYEEVRKDQDSVGEMKDEGEETLNYPDTTIDLSHLQPQRSIQKLASKEESSNSSDSKSQSRRHLSAKERREMKKKKLPSDSGDLEALEGKDKEKESTVHIETHQNTSKNVAAVQPMKRGQKSKMKKMKEKYKDQDEEDRELIMKLLGSAGSNKEEKGKKGKKGKTKDEPVKKQPQKPRGGQRVSDNIKKETPFLEVITHELQDFAVDDPHDDKEEQDLDQQGNEENLFDSLTGQPHPEDVLLFAIPICAPYTTMTNYKYKVKLTPGVQKKGKAAKTALNSFMHSKEATAREKDLFRSVKDTDLSRNIPGKVKVSAPNLLNVKRK [NEMF]”, the “solubility in G1/S (log2)” value in the data set with HeLa Kyoto [1] was -0.354. The melting temperature in the data set on HeLa Kyoto [2] (cell cycle stage: G1/S) came to 50.8 °C; in the data set on HeLa Kyoto [2] (cell cycle stage: mitosis) it was 50.2 °C. Besides, the “solubility change mitosis (log2)” value in the data set on HeLa Kyoto [3] is -0.0231. The values for the thermal stability score in the data set on HeLa Kyoto [4] (setting [5]) and in the data set on HeLa Kyoto [4] (cell cycle stage: mitosis) were -0.477 and -1.01, respectively.

Consider “MKSYTPYFILLWSAVGIAKAAKIIIVPPIMFESHMYIFKTLASALHERGHHTVFLLSEGRDIAPSNHYSLQRYPGIFNSTTSDAFLQSKMRNIFSGRLTAIELFDILDHYTKNCDLMVGNHALIQGLKKEKFDLLLVDPNDMCGFVIAHLLGVKYAVFSTGLWYPAEVGAPAPLAYVPEFNSLLTDRMNLLQRMKNTGVYLISRLGVSFLVLPKYERIMQKYNLLPEKSMYDLVHGSSLWMLCTDVALEFPRPTLPNVVYVGGILTKPASPLPEDLQRWVNGANEHGFVLVSFGAGVKYLSEDIANKLAGALGRLPQKVIWRFSGPKPKNLGNNTKLIEWLPQNDLLGHSKIKAFLSHGGLNSIFETIYHGVPVVGIPLFGDHYDTMTRVQAKGMGILLEWKTVTEKELYEALVKVINNPSYRQRAQKLSEIHKDQPGHPVNRTIYWIDYIIRHNGAHHLRAAVHQISFCQYFLLDIAFVLLLGAALLYFLLSWVTKFIYRKIKSLWSRNKHSTVNGHYHNGILNGKYKRNGHIKHEKKVK [UGT8]”, for which the “solubility in G1/S (log2)” value with HeLa Kyoto [1] was -0.021. Further, the melting temperature with HeLa Kyoto [2] (cell cycle stage: mitosis) worked out at 53.8 °C. Further, the “solubility change mitosis (log2)” value with HeLa Kyoto [3] is -0.0716. Besides, the figures for the thermal stability score in the data set on HeLa Kyoto [4] (setting [5]) and with HeLa Kyoto [4] (cell cycle stage: mitosis) were 0.353 and -0.0434, respectively.
